# Reference: patent publication US20260258115A1
# How the values were obtained:
# [1] = biological target: RSV postfusion F (postF, F deltaFP) (Respiratory syncytial virus); test: BLI, IgG on sensor, 100 nM antigen
# [2] = biological target: RSV prefusion F (preF, DS-Cav1) (Respiratory syncytial virus); test: BLI, IgG on sensor, 100 nM antigen
Binder,Kd [1] [nM],Kd [2] [nM]
"ADI-41287 (antibody, V domains shown) VH: EVQLVESGGGLVQPGRSLRLSCAASGFTFDDYAMHWVRQAPGKGLEWVSSISWHSADIGYAASVEGRFTISRDNAKNSLFLQMNSLRPEDTALYYCAKEIVSTSWYSGYFQDWGQGTLVTVSS VL: QPVLTQPRSVSGSPGQSVTISCTGTSSDVGDYNYVSWYQQHPGKAPKLMIYDVSKRPSGVPDRFSGSKSGNTASLTISGLQGEDEADYYCCSYAGRHTFVFGTATKVTVL",0.598,3.22
"ADI-41299 (antibody, V domains shown) VH: EVQLVESGGGLVHPGRSLRLSCGASGFTFRSFAMHWVRQAPGKGLEWVAVISYDGSDEYYADSVKGRFTISRDNSRNTLFLQMNRLRPEDTAIYYCARAYCSTSNCPVLDYWGQGTLVTVSS VL: QSVLIQPASVSGSPGQSITISCTGTSSDVGGYSLVSWYQQHPGKAPKLIIFEGNKRPAGVSDRFSGSKYGDTASLTISGLQAEDEADYYCCSYAGGHSVFGGGTKVTVL",2.25,3.48
"ADI-41286 (antibody, V domains shown) VH: QVQLVQSGAEVKKPGASVKVSCKASGYTFISYGISWVRQAPGQGPEWMGWISTHNGNTNYAQKLQGRVTMTTDTSTSTAYMELRSLRSDDTAVYYCARDERSIAVEVYLGSTFDIWGQGTMVTVSS VL: DIQVTQSPSSVSASVGDRVTITCRASQGISSWLAWYQQKPGKAPKLLIYAASTLQSGVPSRFSGSGSGTDFTLTISRLQPEDFATYYCQQANIFGVTFGPGTKVDIK",5.49,7.6
"ADI-41293 (antibody, V domains shown) VH: QVQLQQSGPGLAKPSQTLSLTCTVSGGPISGVDYYWSWIRQPPGKGLEWIGYIYYSGSTYYNPSLKSRVTISVDTSKKQFSLKMSSVTAADTAVYYCARDVGATPYYYYGMDVWGQGTTVTVSS VL: DIVLTQSPDTLSLSPGERATLSCRASQSVRSNYLAWYQHKPGQAPRLLIYGASSRVAGIPDRFSGSGSGTDFTLTISRLEPEDFAVYYCQQYGSSPPSVTFGGGTKVEIK",0.411,0.496
"ADI-41297 (antibody, V domains shown) VH: QVQLVQSGAEVKKPGSSVKVSCKASGGTFSTDAISWVRQAPGQGLEWMGGIIPLFGTANYAQKFQGRVTITADESTSTAYMELNSLRSVDTAVYYCGRTGAFDGEVVVRPHLDLWGQGTLVTVSS VL: QPVLTQPASVSGSPGQSITISCTGTSSDVGGYDYVSWYQHHPGKAPKLMIYEVSNRPSGVSNRFSGSKSGNTASLTISGLQADDEAAYYCSSYTRSNTLLFGGGTKLTVL",0.628,3.91
"ADI-41291 (antibody, V domains shown) VH: QVQLQQWGAGLLKPSETLSLTCVVYGESFSDSGYYWTWIRQPPEKGLEWIGEINHGGSTSYNPSLKSRVTISVDTSENQFSLKVTSVTGADTAVYYCARLRLGCSGGSCYSRFDYWGQGTLVTVSS VL: DIQLTQSPSSLSASVGDRVTITCRASQSINSYLNWYQQKPGKAPVLLIHAASSLQGGVPSRFSGSGSGTDFTLTISSLQPEDFATYYCQQSYNTRWTFGHGTKVDIK",1.2,2.98
"ADI-41285 (antibody, V domains shown) VH: QVQLVQSGAEVKKPGSSVKVSCKASGGTFSYYAISWVRQAPGQGLEWMGGIIPILGTVKNAQKFQGRVTITADKITSIAYMELSSLRHEDTAVYYCARDYYDSSGYYYNGYGMDVWGQGTTVTVSS VL: QSVLIQPPSASGTPGQRVTISCSGSSSNIGSNYVYWYQQLPGTAPKLLIYRNDQRPSGVPDRFSGSKSGTSASLAISGLRSGDEADYYCAAWDDSLGGPIWVFGGGTKLTVL",0.412,0.511
"ADI-41292 (antibody, V domains shown) VH: EVQLLESGGGVVQPGRSLRLSCAASGFSFSSYGIHWVRQAPGKGLECVALMSYDGSEKYYADSVKGRFTISRDNSKNTLYLHMNSLRREDTAVYYCAKGSHLRWSHLDYYFHLWGRGTLVTVSS VL: DIVMTQSPSTLSASVGDRVTITCRASQSLSTWLAWYQQKPGKAPKLLISDASNLESGVPSRFSGRGSGTEFTLTISGLQPDDFATYYCQQERTFGQGTKVDIK",195,883
